Consider four molecules from article PMC5705181 (Science (New York, N.Y.), 2017).

In general, Km refers to the substrate concentration at which the rate is half of its maximum. As usually defined, the kcat is the number of substrate molecules converted per active site and unit of time at saturation.

In one data set the target is P5C reductase (Clostridioides difficile, UniProt Q180C5). Description: spectrophotometric assay. Format: biochemical. The following applies: mere turnover.
Substrate in data set [1]: O=C(O)[C@@H]1C[C@@H](O)CN1
The data set can be described thus: purified protein. Format: biochemical, Clostridioides difficile. The following applies: activated by t4LHypD-AE, SAM, acriflavine; anaerobic.

Substrate in data set [2]: C[C@@H](O)CO
The data set can be described thus: purified protein. The following applies: activated by PD-AE, SAM, 5-deazariboflavin; anaerobic.

Substrate in data set [3]: C[C@H](O)CO
Description: purified protein. The following applies: activated by PD-AE, SAM, 5-deazariboflavin; anaerobic.

As for `O=C(O)[C@@H]1CCCN1` [L-proline], the spectrophotometric assay result at P5C reductase (reverse direction (interconversion with P5C)) was “P5C reductase could interconvert P5C and L-proline”.
In the case of `O=C(O)[C@@H]1CCC=N1` [Δ^1-pyrroline-5-carboxylate], the spectrophotometric assay result at P5C reductase (NADH as reductant in the coupled assay) was “P5C reductase could interconvert P5C and L-proline”.

B1: t4LHypD (trans-4-hydroxy-L-proline dehydratase, GRE Cluster 15) (Clostridioides difficile) (protein)
chain: MARGTFERTKKLREESINAEPHISIERAVLMTEAYKKYEGSVEIPVLRALSFKHYIENRTLSINDGELIVGEKGDSPNGAPTYPEICCHTMEDLEVMHNRDIINFSVSEEARKIHKEEIIPFWKKRQTRDKIINAMTPEWLAAYEAGMFTEFMEQRAPGHTVCGDTIYKKGFLDLKKDIEARLKELDFLNDLDAYNKKADLEAMAIACDAMVILGKRYAEKARQMAEEETDEAKKKDLLLIAETCDVVPAHKPETYHQAIQMYWFVHIGVTTELNIWDAFTPGRLDQHLNPFYERDVENGILDRDRAQELLECLWVKFNNQPAPPKVGITLKESSTYTDFANINTGGINPDGQDGVNEVSYIILDVMDEMKLIQPSSNVQISKKTPQKFLKRACEISRKGWGQPAFYNTEAIVQELMEAGKTIEDARLGGTSGCVETGCFGKEAYVLTGYMNIPKILELTLNNGYDPISKKQIGIETGDPRNFQSYEELFEAFKKQLHYMIDIKIEGNAVIENICAKHMPCPLMSTIVDDCIEKGKDYQRGGARYNTRYIQGVGIGTITDSLTAIKYNVFDKKKFDMDTLLKALDANFEGYEAILNLVSNKTPKYGNDDDYADEIMQEIFNAYYNEVTGRPTVCGGEYRVDMLPTTCHIYFGEIMGASPNGRLCAKPVSEGISPEKGGDTNGPTAVIKSCAKMDHIKTGGTLLNQRFAPSVVQGEKGLDNMANLVRAYFNMDGHHIQFNVFDKNVLLEAQKNPQDYKDLIVRVAGYSDHFNNLSRTLQDEIIGRTEQTF
For B1, in the data set “purified protein [1]”, the Km is recorded as 1.2 ± 0.1 mM and the turnover number (kcat) stood at 45 ± 1 s⁻¹.

B2: PD (propanediol dehydratase, GRE Cluster 16) (Roseburia inulinivorans) (protein)
chain: MGNYDSTPIAKSDRIKRLVDHLYAKMPEIEAARAELITESFKATEGQPVVMRKARAFEHILKNLPIIIRPEELIVGSTTIAPRGCQTYPEFSYEWLEAEFETVETRSADPFYISEETKKRLLAADAYWKGKTTSELATSYMAPETLRAMKHNFFTPGNYFYNGVGHVTVQYETVLAIGLNGVKEKVRKEMENCHFGDADYSTKMCFLESILISCDAVITYANRYAKMAEEMAEKETDAARRQELLTIARVCKNVPEFPAESFQEACQSFWFIQQVLQIESSGHSISPGRFDQYMYPYYEKDLKEGSLTREYAQELIDCIWVKLNDLNKCRDAASAEGFAGYSLFQNLIVGGQTVQGRDATNDLSFMCITASEHVFLPMPSLSIRVWHGSSKALLMRAAELTRTGIGLPAYYNDEVIIPALVHRGATMDEARNYNIIGCVEPQVPGKTDGWHDAAFFNMCRPLEMVFSNGYDNGEIASIQTGNVESFQSFDEFMEAYRKQMLYNIELMVNADNAIDYAHAKLAPLPFESCLVDDCIKRGMSAQEGGAIYNFTGPQGFGIANVADSLYTIKKLVFEEKRITMGELKKALEMNYGKGLDATTAGDIAMQVAKGLKDAGQEVGPDVIANTIRQVLEMELPEDVRKRYEEIHEMILELPKYGNDIDEVDELAREAAYFYTRPLETFKNPRGGMYQAGLYPVSANVPLGAQTGATPDGRLAHTPVADGVGPTSGFDISGPTASCNSVAKLDHAIASNGTLFNMKMHPTAMAGEKGLESFISLIRGYFDQQGMHMQFNVVDRATLLDAQAHPEKYSGLIVRVAGYSALFTTLSKSLQDDIIKRTEQADNR
B2: in “purified protein [2]”, the Km is 44 ± 4 mM and the kcat was 330 ± 40 s⁻¹. For the same molecule, in the data set “purified protein [3]”, the Km worked out at 8 ± 1 mM and the catalytic constant (kcat) is 1500 ± 100 s⁻¹.
